According to patent publication US20130331738A1, “COMPOSITIONS AND METHODS FOR POTENTIATING SONOTHROMBOLYSIS” (Board of Trustees University of Arkansas, priority 2012, published 2013):

System: rigid clots (pooled rabbit plasma, fresh rabbit blood cells, thrombin)
Assay: Sonothrombolysis of aged and rigid clots, 1 MHz pulsed ultrasound in a Mylar flow chamber
Details: 0.1 mg/mL of tPA and/or MBs at about 0.5-2.5×10^8 MB/mL
Experimental: To assess the effect of CPDL and/or degradable starch nanoparticles on the efficacy of sonothrombolysis, the following experiment was conducted. Rigid clots were formed by mixing pooled rabbit plasma with fresh rabbit blood cells and 30 U/mL of thrombin. The clots were incubated at 37° C. in glass tubes for 24 h followed by curing at 5° C. for 24 h. The total clot volumes and mass densities of each main clot were measured, and then 9-11 mg pieces were cut from the main clot. Each clot piece was weighed and then insonated with 1 MHz, pulsed ultrasound in a Mylar flow chamber through which fresh rabbit serum containing tPA and/or microbubbles (MBs) were introduced continuously. Sonothrombolysis efficacy was quantified as the % of clot mass lysed in 15 min. A stable nanoemulsion of CPDL at a concentration ranging from about 0.003-0.06% w/V, and/or 50-200 nm degradable starch nanoparticles were added to the system to enhance sonothrombolysis efficacy.

B1: tPA: tissue plasminogen activator (protein, UniProt P00750 36-562, looked up)
Tissue-type plasminogen …: SYQVICRDEKTQMIYQQHQSWLRPVLRSNRVEYCWCNSGRAQCHSVPVKSCSEPRCFNGGTCQQALYFSDFVCQCPEGFAGKCCEIDTRATCYEDQGISYRGTWSTAESGAECTNWNSSALAQKPYSGRRPDAIRLGLGNHNYCRNPDRDSKPWCYVFKAGKYSSEFCSTPACSEGNSDCYFGNGSAYRGTHSLTESGASCLPWNSMILIGKVYTAQNPSAQALGLGKHNYCRNPDGDAKPWCHVLKNRRLTWEYCDVPSCSTCGLRQYSQPQFRIKGGLFADIASHPWQAAIFAKHRRSPGERFLCGGILISSCWILSAAHCFQERFPPHHLTVILGRTYRVVPGEEEQKFEVEKYIVHKEFDDDTYDNDIALLQLKSDSSRCAQESSVVRTVCLPPADLQLPDWTECELSGYGKHEALSPFYSERLKEAHVRLYPSSRCTSQHLLNRTVTDNMLCAGDTRSGGPQANLHDACQGDSGGPLVCLNDGRMTLVGIISWGLGCGQKDVPGVYTKVTNYLDWIRDNMRP
Question: B1 was tested. Which “efficacy of sonothrombolysis for more rigid and aged clots” value did it give?
Answer: reduced markedly
